Data published in patent US20200024330A1.

Tests used:
Experiment in all cases: cell-based or functional assay
[1] = molecular target: HIV-1 Env of isolate MG RM-D-011 (subtype D) (HIV-1)
[2] = molecular target: HIV-1 MGRM-Chronic-B-017 Env (pseudovirus) (HIV-1)
[3] = molecular target: HIV-1 Env of isolate MG RM-D-029 (subtype D) (HIV-1)
[4] = molecular target: HIV-1 Env of isolate MGRM-C-002 (pseudovirus) (HIV-1 isolate MGRM-C-002, subtype C)
[5] = molecular target: HIV-1 MGRM-Chronic-B-012 Env (pseudovirus) (HIV-1)
[6] = molecular target: HIV-1 JR-CSF Env D185A (HIV-1 (isolate JR-CSF)) (UniProt P20871)
[7] = molecular target: HIV-1 JR-CSF Env T162A (HIV-1 (isolate JR-CSF)) (UniProt P20871)
[8] = molecular target: HIV-1 Env of isolate MGRM-C-014 (pseudovirus) (HIV-1 isolate MGRM-C-014, subtype C)
[9] = molecular target: HIV-1 Env of isolate MG RM-D-026 (subtype D) (HIV-1)
[10] = molecular target: HIV-1 JR-CSF Env F468A (HIV-1 (isolate JR-CSF)) (UniProt P20871)
[11] = molecular target: HIV-1 Env of isolate MGRM-C-010 (pseudovirus) (HIV-1 isolate MGRM-C-010, subtype C)
[12] = molecular target: HIV-1 Env of isolate MGRM-C-015 (HIV-1)
[13] = molecular target: HIV-1 Env of isolate MGRM-D-016 (HIV-1)
[14] = molecular target: HIV-1 Env of isolate APV-13 (pseudovirus) (HIV-1 isolate APV-13, subtype B)
[15] = molecular target: HIV-1 Env of isolate MGRM-Chronic-B-004 (HIV-1)
[16] = molecular target: HIV-1 Env of isolate MGRM-D-026 (subtype D), on pseudovirus (HIV-1)
[17] = molecular target: HIV-1 Env of isolate MGRM-C-019 (HIV-1)
[18] = molecular target: HIV-1 Env of isolate MGRM-AG-012 (CRF_AG), on pseudovirus (HIV-1)
[19] = molecular target: HIV-1 Env of isolate MGRM-F1-010 (subtype F), on pseudovirus (HIV-1)
[20] = molecular target: HIV-1 Env of isolate 92UG001 (HIV-1)
[21] = molecular target: HIV-1 Env of isolate MGRM-D-005 (HIV-1)
[22] = molecular target: HIV-1 Env of isolate THR0.18 (HIV-1)
[23] = molecular target: HIV-1 Env of isolate MGRM-AE-005 (CRF01_AE), on pseudovirus (HIV-1)
[24] = molecular target: HIV-1 Env of isolate VLGCB3 (HIV-1)
[25] = molecular target: HIV-1 Env of isolate MGRM-A-007 (clade A), on pseudovirus (HIV-1)
[26] = molecular target: HIV-1 Env of isolate MGRM-AG-011 (CRF_AG), on pseudovirus (HIV-1)
[27] = molecular target: HIV-1 Env of isolate MGRM-AE-007 (CRF01_AE), on pseudovirus (HIV-1)
[28] = molecular target: HIV-1 Env of isolate MGRM-F1-006 (subtype F), on pseudovirus (HIV-1)
[29] = molecular target: HIV-1 Env of isolate MGRM-AE-002 (HIV-1)

5329_C19 (PGT-136) (antibody), sequence (VH): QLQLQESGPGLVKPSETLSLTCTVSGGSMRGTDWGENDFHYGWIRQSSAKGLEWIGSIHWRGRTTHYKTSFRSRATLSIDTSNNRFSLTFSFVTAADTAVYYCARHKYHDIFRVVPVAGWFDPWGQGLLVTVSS
5329_C19 (PGT-136) (antibody), sequence (VL): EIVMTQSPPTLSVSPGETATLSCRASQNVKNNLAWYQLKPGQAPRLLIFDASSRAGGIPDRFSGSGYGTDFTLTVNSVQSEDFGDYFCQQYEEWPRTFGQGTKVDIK
5345_I01 (PGT-137) (antibody), sequence (VH): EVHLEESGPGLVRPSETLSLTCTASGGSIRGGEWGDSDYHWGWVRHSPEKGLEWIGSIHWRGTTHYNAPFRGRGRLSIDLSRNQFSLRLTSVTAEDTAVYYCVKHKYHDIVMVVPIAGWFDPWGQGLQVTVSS
5345_I01 (PGT-137) (antibody), sequence (VL): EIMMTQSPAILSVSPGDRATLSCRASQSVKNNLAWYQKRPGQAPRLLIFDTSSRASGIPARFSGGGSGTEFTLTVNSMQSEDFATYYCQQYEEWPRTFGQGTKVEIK

5145_B14 (PGT-127) (antibody)
IC50 (µg/mL), pseudovirus neutralization [1]: 0.015 µg/mL
IC50, pseudovirus neutralization [2]: > 50 µg/mL
IC50 (µg/mL), pseudovirus neutralization [3]: > 50 µg/mL
IC50 (µg/mL) neutralization [4]: 0.057 µg/mL
IC50, pseudovirus neutralization [5]: 0.075 µg/mL
Fold IC50 increase relative to wild-type [6]: 2 fold
Fold IC50 increase relative to wild-type [7]: 1.1 fold
IC50 (µg/mL) neutralization [8]: > 50 µg/mL
IC50 (µg/mL), pseudovirus neutralization [9]: > 50 µg/mL
Fold IC50 increase relative to wild-type [10]: 3 fold
IC50 (µg/mL) neutralization [11]: > 50 µg/mL

5329_C19 (PGT-136) (antibody)
IC50 [12]: 11.1 µg/mL
IC50 [13]: > 50 µg/mL
IC50 (µg/mL) neutralization [14]: > 50 µg/mL
IC50 [15]: > 50 µg/mL
IC50, pseudovirus neutralization [16]: > 50 µg/mL
IC50 [17]: 20.1 µg/mL
IC50, single-round pseudovirus neutralization [18]: > 50 µg/mL
IC50, pseudovirus neutralization [19]: > 50 µg/mL
IC50 [20]: > 50 µg/mL
IC50 [21]: > 50 µg/mL
IC50 [22]: > 50 µg/mL
IC50, single-round pseudovirus neutralization [23]: > 50 µg/mL
IC50 [24]: > 50 µg/mL
IC50, single-round pseudovirus neutralization [25]: > 50 µg/mL
IC50, single-round pseudovirus neutralization [26]: > 50 µg/mL
IC50, single-round pseudovirus neutralization [27]: > 50 µg/mL
IC50, pseudovirus neutralization [28]: > 50 µg/mL

5345_I01 (PGT-137) (antibody)
IC50 [12]: 1.98 µg/mL
IC50 [13]: > 50 µg/mL
IC50 (µg/mL) neutralization [14]: > 50 µg/mL
IC50 [15]: > 50 µg/mL
IC50, pseudovirus neutralization [16]: > 50 µg/mL
IC50 [17]: > 50 µg/mL
IC50, single-round pseudovirus neutralization [18]: > 50 µg/mL
IC50, pseudovirus neutralization [19]: > 50 µg/mL
IC50 [20]: > 50 µg/mL
IC50 [21]: > 50 µg/mL
IC50 [22]: > 50 µg/mL
IC50, single-round pseudovirus neutralization [23]: > 50 µg/mL
IC50 [24]: 3.36 µg/mL
IC50, single-round pseudovirus neutralization [25]: > 50 µg/mL
IC50, single-round pseudovirus neutralization [26]: > 50 µg/mL
IC50, single-round pseudovirus neutralization [27]: > 50 µg/mL
IC50, pseudovirus neutralization [28]: > 50 µg/mL

PGT-121 (antibody)
IC50 (µg/mL), pseudovirus neutralization [29]: > 50 µg/mL

PGT-122 (antibody)
IC50 (µg/mL), pseudovirus neutralization [29]: > 50 µg/mL

PGV04 (antibody)
IC50 (µg/mL), pseudovirus neutralization [13]: 0.201 µg/mL
IC50 (µg/mL), pseudovirus neutralization [29]: 0.569 µg/mL
IC50, pseudovirus neutralization [20]: 0.553 µg/mL
IC50 (µg/mL), pseudovirus neutralization [21]: > 50 µg/mL

VRC01 (antibody)
IC50, pseudovirus neutralization [13]: 0.452 µg/mL
IC50 [15]: 0.055 µg/mL
neutralization IC50 [22]: 2.46 µg/mL
neutralization IC50 [24]: 0.108 µg/mL
